This is an account of results in patent US20060165695A1 (Kyowa Kirin, published 2006).

Test [1] addresses T1, human insulin-like growth factor I (hIGF-I) (human, UniProt P05019 49-118).
T1 construct: mature; In the ELISAs it was immobilised as a conjugate with methylated BSA; In SPR it was amine-coupled to the chip; also called human IGF-I; recombinant hIGF-I
Description: SPR (Biacore 2000), ratio of KA values. The protocol:
(§1) In order to analyze binding activity of the anti-hIGF antibody KM1468 to an antigen hIGF-I or hIGF-II, binding strengths of the anti-hIGF antibody KM1468, a commercially available anti-hIGF-I antibody sm1.2 and a commercially available anti-hIGF-II antibody S1F2 to hIGF-I and hIGF-II were measured in the following manner using the biosensor Biacore 2000 (manufactured by BIACORE) use of a surface plasmon resonance. HBS-EP (10 mM HEPES, 150 mM NaCl, 3 mM EDTA, 0.005% Tween 20, pH 7.4) (manufactured by BIACORE) was used for the dilution of analytes and as the reaction buffer.
(§2) The reaction was carried out at 25° C. Association rate constant Kass and dissociation constant Kdiss were calculated from the binding reaction curves at respective concentrations, and the binding constant KA (M⁻¹) of each of these antibodies was calculated. The binding constant KA is calculated by KA=Kass/Kdiss.
Background: In SPR one partner is held on a chip, and binding of the other changes the refractive index at the surface.

The target in test [2] is T2, human insulin-like growth factor II (hIGF-II) (human, UniProt P01344 25-91).
T2 construct: In the ELISA it was immobilised as a conjugate with methylated BSA; In SPR it was amine-coupled to the chip; also called human IGF-II; methylated BSA-hIGF-II (immobilised conjugate)
T2 sequence (P01344 25-91 limits assumed): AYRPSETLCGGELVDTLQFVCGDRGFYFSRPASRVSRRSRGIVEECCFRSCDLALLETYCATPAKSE
The test can be described thus: SPR (Biacore 2000), ratio of KA values. The protocol:
as §1, §2

Test [3] has as its target T3, hIGF-I partial peptide p1-18 (human).
T3 peptide: GPETLSGAELVDALQFVC
Description: competitive ELISA: KM1468 (4.0 µg/ml) on immobilised methylated BSA-hIGF-I, peptide as competitor. Background: In an ELISA, binding on a coated surface is turned into a signal by an enzyme label.

Test [4] has as its target T4, hIGF-I partial peptide p14-30 (human).
T4 peptide: CLQFVAGDRGFYFNKPTG
The description is as above.

Test [5] addresses T5, hIGF-I partial peptide p24-35 (human).
T5 peptide: CYFNKPTGYGSSS
The description is as above.

Test [6] addresses T6, hIGF-I partial peptide p29-41 (human).
T6 peptide: CTGYGSSSRRAPQT
The test is described as above.

In test [7] the target is T7, hIGF-I partial peptide p36-47 (human).
T7 peptide: RRAPQTGIVDEC
Described as above.

In test [8] the target is T8, hIGF-I partial peptide p41-56 (human).
T8 peptide: CTGIVDEAAFRSADLRR
The test is described as above.

Test [9] concerns the target T9, hIGF-I partial peptide p52-70 (human).
T9 peptide: CDLRRLEMYAAPLKPAKSA
The test is described as above.

For test [10], the target named is T10, hIGF-I partial peptide p53-61 (human).
T10 peptide: DLRRLEMYC
Described as above.

Test [11] addresses T11, hIGF-I partial peptide p61-70 (human).
T11 peptide: CAPLKPAKSA
The test is described as above.

Test [12] has as its target T12, hIGF-I partial peptide p41-56C (human).
T12 peptide: CTGIVDECCFRSCDLRR
The test is described as above.

The target in test [13] is T1, human insulin-like growth factor I …. Description: SPR (Biacore 2000), hIGF-I amine-coupled to CM-5 chip, antibody as analyte, 25 °C; KA=Kass/Kdiss. On the procedure:
as §1, §2

The target in test [14] is T2, human insulin-like growth factor II …. The test can be described thus: SPR (Biacore 2000), hIGF-II amine-coupled to CM-5 chip, antibody as analyte, 25 °C; KA=Kass/Kdiss. On the procedure: as §1, §2
The target in test [15] is T13, human insulin (manufactured by Wako Pure Chemical Industries) (human, UniProt P01308 25-54; P01308 90-110).
T13 construct: Bought reagent
T13 sequence (P01308 25-54 limits assumed, chain 1 of 2): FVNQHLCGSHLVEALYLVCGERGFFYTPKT
T13 sequence (P01308 90-110 limits assumed, chain 2 of 2): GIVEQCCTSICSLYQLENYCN
The test can be described thus: competitive ELISA: KM1468 (0.6 µg/ml) on immobilised methylated BSA-hIGF-I or methylated BSA-hIGF-II, insulin as competitor. The text has this:
Cross reactivity of the purified anti-hIGF antibody KM1468 with hIGF-II and human insulin was examined by the competitive ELISA shown below. As the antigens, hIGF-I (manufactured by Pepro Tech), hIGF-II (manufactured by Pepro Tech) and human insulin (manufactured Wako Pure Chemical Industries) were used.
The methylated BSA-hIGF-I antigen prepared in Example 1(1) or a methylated BSA-hIGF-II antigen prepared in the same manner as in Example 1(1) was immobilized on a plate in accordance with the method shown in Example 1(4), at a concentration of 0.1 μg/ml in the case of the methylated BSA-hIGF-I antigen, or at a concentration of 1.0 μg/ml in the case of the methylated BSA-hIGF-II antigen, KM1468 diluted to 0.6 μg/ml was dispensed therein in 25 μl/well portions, and then each of 4-fold serial dilutions of hIGF-I, hIGF-II or human insulin prepared by starting from 20 μg/ml was dispensed in 25 μl/well portions, mixed and allowed to react at room temperature for 1 hour. After the reaction and subsequent washing with Tween-PBS, 1,000 times-diluted peroxidase-labeled rabbit anti-rat Ig antibody (manufactured by DAKO) was added in 50 μl/well portions as the secondary antibody in the case of the anti-hIGF antibody KM1468. […] The results are represented by relative values (%) wherein OD415 when an antibody alone is added is defined as 100.

T1 sequence (P05019 49-118): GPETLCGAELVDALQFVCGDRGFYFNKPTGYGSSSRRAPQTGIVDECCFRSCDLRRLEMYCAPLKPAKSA

B1: anti-hIGF rat monoclonal antibody KM1468 (antibody, V domains shown)
VH: EVHLVESGGGLVQPGRSLKLSCAASGFTFSNYYMTWVRQAPTKGLEWVAYISSGGGSTYYRDSVKGRFTISRDNAKSTLYLQMDSLRSEDTATYYCTTEDYGYWFAYWGQGTLVTVSS
VL: EIVLTQSPTTMAASPGEKVTITCRASSSVSYMHWFQQKSGTSPKPWIYGTSKLASGVPDRFSGSGSGTSYSLTISSMEAEDAATYYCLQRSSYPPTFGAGTKLELKR
notes: Rat IgG2b with kappa L chain, purified from ascites; The ranges 20-137 and 23-129 are counted from the first residue of the entry; also called anti-hIGF antibody KM1468; anti-hIGF rat antibody KM1468
In the case of B1, the figures for the “fold KA versus S1F2” value in test [1] and in test [2] were around 18 fold and around 3.6 fold, respectively. Moreover, the “fold KA versus sm1.2” value in test [1] was around 42 fold; in [2], around 120 fold. Moreover, the binding result in [3], in test [4], in [5], in [6], in test [7] and in [8] was “no binding” throughout. In addition, the binding result in [9], in [10], in [11], in test [12] and in test [15] was “no binding” each time. Further, the figures for the Ka in test [13] and in test [14] were 7.86e+09 M⁻¹ and 8.63e+09 M⁻¹, respectively.
